Measurements taken from patent publication US20240092901A1.

Columns and labels:
Experiment in all cases: ELISA
[1] = target: human Ror2 (receptor tyrosine kinase-like orphan receptor 2) (human) (UniProt Q01974)
mouse Ror2 (mouse) = mouse Ror2 (mouse) (UniProt Q9Z138)
[2] = target: cynomolgus Ror2 (cynomolgus)

Chain of human Ror2 (receptor tyrosine kinase-like orphan receptor 2) (human) (Q01974 34-403 limits assumed): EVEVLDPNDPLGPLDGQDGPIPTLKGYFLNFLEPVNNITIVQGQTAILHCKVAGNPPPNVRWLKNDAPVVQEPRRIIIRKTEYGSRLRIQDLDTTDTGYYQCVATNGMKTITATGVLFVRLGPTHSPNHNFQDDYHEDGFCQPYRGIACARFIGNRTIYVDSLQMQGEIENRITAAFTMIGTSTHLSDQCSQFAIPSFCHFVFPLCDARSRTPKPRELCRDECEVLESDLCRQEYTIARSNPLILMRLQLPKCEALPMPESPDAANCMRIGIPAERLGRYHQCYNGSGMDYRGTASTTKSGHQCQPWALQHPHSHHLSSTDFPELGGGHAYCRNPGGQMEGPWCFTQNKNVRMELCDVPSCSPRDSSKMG
Chain of mouse Ror2 (mouse) (Q9Z138 34-403 limits assumed): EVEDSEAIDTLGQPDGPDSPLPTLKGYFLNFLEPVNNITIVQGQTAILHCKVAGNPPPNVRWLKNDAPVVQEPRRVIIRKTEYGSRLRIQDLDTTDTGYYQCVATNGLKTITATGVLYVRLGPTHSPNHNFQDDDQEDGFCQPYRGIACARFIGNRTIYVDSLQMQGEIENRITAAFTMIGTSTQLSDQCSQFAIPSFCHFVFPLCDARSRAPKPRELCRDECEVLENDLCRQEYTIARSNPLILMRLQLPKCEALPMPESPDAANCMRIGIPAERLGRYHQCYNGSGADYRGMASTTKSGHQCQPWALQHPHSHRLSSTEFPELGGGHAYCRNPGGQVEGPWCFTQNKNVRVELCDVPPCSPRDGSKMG

B1: conditionally active antibody BAP048 (antibody, from a related filing, V domains shown)
VH: EVQLVQSGAEVKKPGESLRISCKGSGYTFTEYTMHWVRQAPGQGLEWMGGINTNNGGTGYNQKFKGRVTISADKSISTAYLQWSSLKASDTAMYYCAHGSLYSYGNSYFDYWGQGTLVTVSS
VL: AIQLTQSPSSLSASVGDRVTITCSATSSVSYMHWYLQKPGQSPQLLIYGTSNLASGVPDRFSGSGSGTDFTLKISRVEAEDVGVYYCQQRSSYPFTFGQGTKVEIK
EC50 [1]: 0.201 µg/mL | EC50 (mouse Ror2 (mouse)): 7.65 µg/mL | EC50 [2]: 0.327 µg/mL
